Measured values taken from patent US20170131285A1 (INSERM INSTITUT NATIONAL DE LA SANTE ET DE LA RECHERCHE …, published 2017).

Biological target: T1, recombinant HSP70 (Heat Shock 70 kDa Protein) (human, UniProt P0DMV8 1-641)
T1 construct: also called HSP72; human HSP70
Assay: BLI (Octet Red), biotinylated A8 on streptavidin sensors, HSP70 in solution, 1:1 model global fit
Protocol: Protein-protein interaction experiments were conducted at 25° C. in PBS with an Octet Red instrument (Forte Bio, Menlo Park, Calif., USA) by biolayer interferometry (BLI). The ligand (cmHSP70 or A8 or TLR2) was biotinylated using EZ-Link NHS-PEG₄-biotin (Thermo Fisher Scientific, Bonn, Germany) according to the manufacturer's protocol and immobilized at a concentration of 20 μg/ml on streptavidin sensors (ForteBio, Menlo Park, Calif., USA). These functionalized biosensors were dipped into black Greiner 96-well microplates agitated at […] and filled with a solution of 200 μL containing the analyte. All sensorgrams were corrected for baseline drift by subtracting a control sensor exposed to running buffer only. Each KD was determined with a 1:1 stoichiometry model using a global fit with Rmax unlinked by sensor (Forte Bio, Data analysis software version 7.1.0.89).
Protein-protein interaction experiments were conducted with an Octet Red instrument (ForteBio, USA). The ligand (A8 or TLR2) was biotinylated using EZ-Link NHS-PEG₄-biotin (2 nM, 30 min, RT, Thermo Fisher Scientific, Germany) and immobilized on streptavidin sensors (96-well plate black, ForteBio, USA). […] Each KD was determined with a 1:1 stoichiometry model using a global fit with Rmax unlinked by sensor (ForteBio, Data analysis software version 7.1.0.89).

T1 sequence (P0DMV8 whole entry): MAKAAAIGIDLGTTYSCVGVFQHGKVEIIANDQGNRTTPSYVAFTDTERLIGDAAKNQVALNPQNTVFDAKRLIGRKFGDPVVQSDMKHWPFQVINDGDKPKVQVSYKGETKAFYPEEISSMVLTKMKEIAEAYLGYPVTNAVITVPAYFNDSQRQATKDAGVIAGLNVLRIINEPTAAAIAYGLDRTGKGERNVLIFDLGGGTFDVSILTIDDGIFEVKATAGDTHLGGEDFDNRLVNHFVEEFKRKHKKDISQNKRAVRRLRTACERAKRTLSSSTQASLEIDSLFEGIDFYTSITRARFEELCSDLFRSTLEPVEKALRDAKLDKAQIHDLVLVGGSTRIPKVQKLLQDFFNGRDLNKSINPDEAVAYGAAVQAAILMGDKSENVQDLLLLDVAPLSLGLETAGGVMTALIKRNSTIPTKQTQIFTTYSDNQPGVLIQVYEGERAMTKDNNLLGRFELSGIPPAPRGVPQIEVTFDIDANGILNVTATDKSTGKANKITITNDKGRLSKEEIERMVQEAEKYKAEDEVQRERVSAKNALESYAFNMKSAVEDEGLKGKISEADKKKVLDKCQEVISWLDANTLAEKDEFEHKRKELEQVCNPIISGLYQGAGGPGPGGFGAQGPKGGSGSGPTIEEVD

B1: peptide aptamer A8 (peptide)
peptide: SPWPRPTY
modifications: biotinylated with EZ-Link NHS-PEG4-biotin when immobilised on streptavidin sensors for BLI (site not stated); no modification stated for the solution assays
notes: also called A8 peptide aptamer; HSP70 peptide aptamer A8
Kd: 2.2 nM
